Data on 2 substances can be found in patent US20050287527A1, “Quantitative ranking of transient ligand binding to target biomolecules” (National Research Council of Canada, priority 2002, published 2005).

The target in this assay is Recombinant Cdc42 (residues 1-178) from Candida Albicans (Candida albicans) (UniProt P0CY33). Kind of assay: method not stated; the complexes give no response in relaxation dispersion.
Chain of Recombinant Cdc42 (residues 1-178) from Candida Albicans (Candida albicans) (P0CY33 1-178 limits assumed): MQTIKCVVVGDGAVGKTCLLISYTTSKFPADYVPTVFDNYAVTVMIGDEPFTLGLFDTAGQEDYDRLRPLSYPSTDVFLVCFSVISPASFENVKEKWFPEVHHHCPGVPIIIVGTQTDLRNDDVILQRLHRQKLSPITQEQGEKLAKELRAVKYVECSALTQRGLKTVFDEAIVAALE

Consider “40-residue CRIB domain of Candida Ste20 (peptide)”, for which the equilibrium dissociation constant (Kd) (usually a measure of binding affinity in units of concentration) is 500 pM.

For the substance “40-residue CRIB domain of Candida Cla4 (peptide)”, the Kd was found to be 500 pM.
